Data on one substance can be found in PMC12303382.

This assay has as its target Clostridioides difficile transferase B component, CDTb_(45-876), activated with trypsin (Clostridioides difficile) (UniProt O32739). Kind of assay: SDS-PAGE of SDS-resistant oligomers.

As for “Clostridioides difficile transferase B component, CDTb_(45-876), activated with trypsin (from UniProt O32739 45-876) (natural protein)”, the fold enhancement of oligomerization with 2.5 M ethanol over water came out at 7.5 fold.
